This data set is described as follows: label from the status in PepcDB records.
Consider “MKIAIIRKIPTRPEQISRPSHSARAGPETHCSMPCGFAASRKAGRIAVKETIKEIVMGMLVEGVWKDVWYDTKETKGHFKRSASQFRNWVTVDGAVGPSGEGGFEAEKDRYHLYVSFACPWAHRTLIFRKLKKLEDLISVSVVDPLMLENGWEFKPEGERTPGATQDHLFGSSTLWQVYTKADPTYSGRVTVPVLWDKKRGTIVSNESAEIIRMFNVAFNDLTGSDADYYPKALRAEIDALNDVIYDTVNNGVYKAGFATTQDAYQQNAVKVFETLDMLEDRLKDRRFLFGSEQTEADWRLFTTLVRFDPVYVGHFKCNIRRIHDYPHLTGYLRDLYQTPGVPDTVDMRHIKEHYYRSHRTINPTGIVPIGPELDLTMAHGREALS”, for which the protein production entry is listed as “failed”. For “MPKMIMVNKKASESQVMELEKRNYNNPVVLCGFAGSTPTGVLAASYIVETLGMHQVAHLISQHIPPVAVFVGGKLRHPFRIYANNSNTVLVAMCEVPISSAHIYEISNTLMNWIDQVGASEIVIMEGSPANGIPEERPVFAVAEKPKLDKFKKAGIQPADSAIIAGMGGGILNECLVRKITGLSFITPTSVDIPDPGAVLSIIEAINKAYNLKIKTDLLEEQVKALDEQIKKIEEQYKELQEKQKEPQSMYG”, the protein production result is “not failed”. For the sequence “MGACMKPIGSDGKPIPTPPSLLSFWEVVGVYGRLGLWLGALFIGAVGIFILMDQPPFVQMDWSGLVQQVAAVVALIAIVIPALQVFFALTNRASGSLRPGRYGRLFERRFARFTPQQIEDILQDARAILATMSDSPKRRAWARWVEWLEQRSNLPLAERSGLKIGVYHPRRSKLWIDGAGVALVGALGSWLIWDQRSWMGWAFLGVLGSLFTWGLLATLTERLELSDDSLSYYAFRRQQWSVPRQHVALREAGSSEYQIYDVRTGRLLGEVKGETFGADIVEALADLFPPWLGDEVG”, the protein production result is “failed”. Turning to “MDLLATRGDPVSDFSVGRVRGRHLAVPPIRHSAAPSNRHSEAPSSRARAADLDAIRLTGIAAVVVGHVWTSGPFTDALFAWHVPVFFILTGYLWKSGRTVRDEISRRSKTLLVPYVAWLAVLSVAFASVEYLRGGSLPVEALRNAVYGGAFAVRPYSAFWFVPVLFFTAVLFRWLERFPPWMAWIIAGLGLAASVFAGEVMAKTPLGIALAVPCLVFVLVGRALPAMVHRVRYKTAVGVGLVLAGVALTVGGVVQPLNMKDGDFGTVALSVVNASAISLGLILVFAALYRMVSPAVNRLTIQLASAGLVVVLTHAFFLYLLNTPASGSIFDAVVALAVPFALALLVLRSPLRRWLVG”, the protein production entry is recorded as “failed”. On to “MKIRNACKEDAQQLIAIYASYVEKTAITFEYQVPSLEEFEERIEKTKQKFPYLVAEEEGILQGYAYASVYYNHAAYDWTVELSIYIKEEARGKHIGSQLYASLERNLQEAGFVNLLVCIALPNNASLTFHKKHGYEQVAHFKKVGYKFDKWYDIVWMQKRLLD”, for which the protein production result is “failed”. As to “MTTDRPLSPPLDHAWIAARIPHSGAMCLLDQVVTWDDTHIRCTTTSHRAPDNPLRAHGRLAAVCGIEYAAQAMAVHGAILGNAQDRPRAGFLASVRSVEAHVERLDTIEAPLTIEAERIGGDGNNVLYRFSVRCGERVLLTGRAAVVLDAAGLGLPDAGALAKANAQAR”, the protein production result is given as “failed”. With “MTSLTQRSSGLVQRRTEASRNAADKERAAGGGAGSSEDDAQSRRDEQDDDDKGDSKETRLTLMEEVLLLGLKDREGYTSFWNDCISSGLRGCMLIELALRGRLQLEACGMRRKSLLTRKVICKSDAPTGDVLLDEALKHVKETQPPETVQNWIELLSGETWNPLKLHYQLRNVRERLAKNLVEKGVLTTEKQNFLLFDMTTHPLTNNNIKQRLIKKVQEAVLDKWVNDPHRMDRRLLALIYLAHASDVLENAFAPLLDEQYDLATKRVRQLLDLDPEVECLKANTNEVLWAVVAAFTK”, the protein production entry is reported as “failed”. On to “MVYVAVLANIAGNFPALTAALEKIEELKEEGYEIEKYYILGNIVGLFPYPREVIEAIKNLAKTSNVKVIRGKYDQLIAMSDPHAGDPKYIDKLEIPDHLKATLKYTWEKLGHEGREYLRDLPIYLVDKIGKNEIFGVYGSPVNPFDGEILPDQPTSYYEAIMRPVKEYEMLLVASPRYPLDAMTMYGRVVCPGSIGFPPAREHKATFALVDAETLKVKFIEVEYDKKIIEDRIKLEKLPEEVIKILYHGGKA”, for which the protein production entry is on record as “not failed”. In the case of “MEELQYFPYEKFRPNQREFIEIVKEAVKRGENLIVEAPTGFGKTISVLAGVLPYAISLGYKVVYLARTHKQMDRVIEELRKIGEKSEVSGIEFRSRKDLCLHAYIQTFAQDAYTSMIVCKSLRKLGKCKYYENLKEKRDRVDEIVKFFLSFPPFPREVIEYSELLELCPYEITKKVGEKANVVVASYLYMISPPIRQAFLENLGVDYSDLIVIFDEAHNLPDQAISALSDRLSVRSIERAIKEAEEYGEKDIENFLSILLRGLEILYKEKLENYESEEIPIRPEEVFLHPASILGWRGRDIGMMLEDMIEVGDAIREDRIERNLPPRSYVGRVGEFLWNWLSLRDREDYLHLFTKEKGLALELVALDPSVALDFLEEVHSAIFMSGTLSPLEAFRDIIGVNARLKKFPRIVKRENAIVLVARDVSTRGIERSPPLYKRIAEYIFEAVKNTPKNVGVFTASYEVLEGVLSTNVHIKIEEEVGKKVFIEKKDAPSRENDEMIREFKEESKGKGAVLFGVMGGRNSEGQDYSGDEMNGVILVGIPYARPTPRVQAQTRYFEKKFPGKGRYYGYILPAHRKLAQAAGRVHRSENEKGSIVILDYRVLWKNVKKDLPDWMVETMIPVTLPTLRIKLRRFWRERLNE”, the protein production result is on record as “failed”. Regarding “MTEASAPLIDVDPRLLEVLVCPVTRGPLEYDRAKGELISRAAKLAYPIRDGVPIMLPEEARELEGLEHHHHHH”, the protein production entry is “not failed”. As to “MRFCIMKKAVVLLSGGLDSTTCLALAKSQGFACYALSFSYGQRHSAELCAATRIAKHMGAADHKIVTLDIALFGGSALTDASIEVPEFKESPEIPVTYVPARNTIFLAMALGYAESIGARDIFIGASSVDYSHYPDCRPEFIESFQSLANLATKAGIEGDRFTINAPLQYLSKVQTIQLGTELGVDYGLTVSCYQANEAGEACGQCDSCTFRKRGFKSAGVDDPTRYQKCVHI”, the protein production entry is on record as “failed”. For “MQKSDALALDGSAALAEPVPATEIARGIAVLAAPTSLVAFLQAGAQLIETWLAARQGTASLAGWAVVLPFALLLQQMSTGAMGGGVVSAIARALGGGKREEASSLVLHALIIAVTAGLIFAIVLAGFPRSVFGAVAGATAAEAAASYAIWLFGAGAVPAWLANTLASVLRGGGRHALAARVLGGMWVVFPVLSWWLAERVGMGLAGIGAALAAVSWGAALVMAYVVFRGGAGFVPSLRIRPSKALFYRILSIGLVACALASVANLTTILVTAQLRHYGTTTVAAYGISARLEFLMIPLAFGVGSALTALVGRAVGAGDWHTARRTAWVGALLALLIAGTVGAAVGLAPNQFAGLFTQDPNVGAIAARALSWVGPAFGGFGLGMALYFASMGAGRMRWPIAAGLCRIALAAGGGWLLANVAGMGLDGHFLGVALGITSYGLVTAIGVRKGEWSPRH”, the protein production result was “failed”. For “VATLNESIEAGLEPGAVALILEAFPIEDRVRLWRALPLELHIDVLTEMRADVRFSIINALSEVELKLTLAKLDNLSLIEWADSLPESIINEALALIEKDELELYDQANEYEDDELGRWAERKIITLPFNITVGTAKQLMERYSYDTPQQVYLINRNKQFRGAVNYYEILRSDSGVRLKTLEIETVTVLDSKMTLPEAVEALEHSALPALPVTDADQTLIGEVDWQFALSTQREIYEARLMAGTGMDEGDDLFAPVLKSSQKRGV”, the protein production result is “not failed”. The entry for “MNTIVVAQLQRQFQDYIVSLYQQGFLDNQFSELRKLQDEGTPDFVAEVVSLFFDDCSKLINTMSISLERPDNVDFKQVDSGVHQLKGSSSSLCFVLSVGARRVKNVCISFKECCDVQNREGYSSNSHTNCDNDIWHRCLRCLQQVDYEYKMLKTKLQDLFNVSFKLCENLLVLLLEKQILQAGGTIPQVDIN” is “failed”; for “IKAVFDPDNRLNPGKICPPEGIDAPMMKVDAAKRGTWDRQIPIAVRSSWRGAMECNGNGLCFNFDVKSPMCPSMKVSNQRIHSPKGRATLVREWLRLLADRGVDPNQLEKALPEQGVSLRSLVARTRNSWHARKGEYDFSHEVKEAMSGCLACKACSTQCPIKIDVPEFRSRFLQLYHSRYLRPVRD” it is “failed”. As for “MFVGREQELASLEEFYAKDGIGMTVIYGRRRIGKSTLITEFVKDKKTVFYTATKIGKARNLELFSKQVLDLFMPGIENISFNSIEAVFDFIDKNIANDKIVLVIDELPYWAEKDDSLLSILQKYIDTIWNDKNLKIILCGSALSFMENKVLSEKSPLFGRRDSQIKLESFNYLDSAKFVPNYSNEDKAICYGITGGVAKYLSMIDPKKNIDENIIRLFFRTDGYLYDETRNLLTQEFSDISLVNNIVEQIASGVNTLNTISGKINEKEPTVLYSLEKLISVGLIEKKKCITEEKNKKKTQYVLKDYMFKFWYEFIPKATSVIEMGQGALYYQKAVKPFLHSFMGSVFEEMCRYYTLNQGITGAYGCFVTSVGTWWGVENITDKNGYIRAQSADIDIVALSDIDKKAVIGECKFKNEKIDKGIYETLVRRGTLISNKYKISKYIFFSLSGYTDWFNSLSDEDVLLLTLDSLYR”, the protein production result is reported as “failed”.

Consider “MKLATFDDGSRDGRLLVVARDLGHAVDASDIATSLQVALENWPQVEARLQALYQQLNDDAVAGAFALDLARLAAPLPRASQWLDGSCFLSHGALMQKAFNLDPIEGVEHTPLIYQGASDDFLGPLADIPLPSEAHGIDFEGEFAVLLDDVPMGCPAEQALQHVRLILQLNDVSLRALAPREMKTGFGFLQAKPASSFAPVAVTPDELGEAWRDGRVHLPLHVHWNGEWFGHPHGGAMHFGFHQLIAHAALTRRLSAGTLLGSGTVSNAERSVGSACIAERRAIETIACGAPRTAFMRFGDRVRMEARGPEGEVLFGAIDQRVVRGGWPCE”, for which the protein production result is on record as “failed”. As to “MEYVNPEGLRLDGRRFNEMRQIVAEVGVVSKADGSAVFEMGNTKVIAAVYGPREIQNKSQQKKNDHAVVLCEYSMAQFSTGDRRRQKFDRRSTELSLVIRQTMEACILTELMPHSQIDIFLQVLQADGGTRSACINAATLALADAGIPMRDLAVSCSAGYLNSTPLLDLNYVEDSAGGADVTVGILPKLDKVSLLQMDAKLPMETFETVFALASEGCKAIAERIREVLQENTKQLEYRRAA”, the protein production entry is given as “failed”. The result for “MEYLGPVLWSPAGKPPTWWDSLPTDRPIVYATLGTSGGRNLLQLVLNALAELPVTVIAATAGRSDLKTVPANAFVADYLPGEAAAARSAVVVCNGGSLTTQQALVAGVPVIGVAGNLDQHLNMEAVERAGAGVLLRTERLKSQRVAGAVMQVISRSEYRQAAARLADAFGRLEHHHHHH” reads “failed”; that for “MTPDIRLRVDGRAIVLLTAGCAPGLCPAFAFWACKASAPGRSIAVTPMRSEQQQTDQHADTLHPYACECHAAHLPSSRKKARMRASLFKFGLNLWRPFLFAGIHVTVLSEDYRFARVELRHRPWNRNYVGTHFGGSLFAMTDPFWMLLTIHNLGRDYYVWDKAGNIEFVKPGRGTLTADFVIDDSLLAQLRQATASGEKHLRWFENEVHHRDGEVVARVRKQLYVKRKPAR”, “failed”; that for “METRAPFVIVGAFVLAAIFAVFGFVFWLHNTSGVGARTSYHVQFRDPVPGLLVGAAVLFNGIRVGEVTALALAPDDPRRVDATIAVAPSTPVRPDTKVGLDFQGLTGVPVVALEGGKQLSGSAIATTLVAEPGAGMSMTQAAREALRKVDSVLGENSGPLKDTIANFKTFSEWLAGKTEKLDGILGGVERMTGANEPVVKKVVYDLSAATGFPPPSPPLKGQLTIPESNTVVLFDSQKMLLAPGLEVPAFAGAQWSDSLPKMLQEKLIQSFENYDIAHAPMRPNDAVQPDYQLLTDIRSFQVIGEGDALRAEIAFSAKIIDKDGKLVAARLFQQASPLDKPEPAAAVSAFDKSFDTIAKELVPWAAQALASGRAEVEPAATTSRPITAPRSSGTTKGR”, “failed”.
